# Measurements taken from publication PMC8358021, “Structural basis of the complementary activity of two ketosynthases in aryl polyene biosynthesis” (Scientific Reports, 2021).
# B1: holo ACP2 (ApeF), acyl carrier protein 2 of the A. baumannii APE gene cluster (natural protein)
# chain: MSNLADELKQMIIDVLALEDITIADIDTEAPLFGEGLGLDSIDALELGLALKKRYNIHLNAESDETKQHFKSIQSLVALVEAQQKS
# modifications: 4'-phosphopantetheine (holo form)
# Tests used:
# [1] = target: T1, AbApeO-AbApeC heterodimer (ketosynthase-chain length factor complex of the aryl polyene biosynthesis gene … (Acinetobacter baumannii)); assay: ITC; 2.0 mM holo ACP1 or holo ACP2 injected (19 injections of 3 µl) into 0.1 mM AbApeO-AbApeC or AbApeR; 25 °C; 40 mM potassium phosphate pH 7.0; 2 mM 2-mercaptoethanol; conditions: both partners purified
# T1 construct: ApeO, ketosynthase of the APE biosynthesis gene cluster, Acinetobacter baumannii (pathogenic strain, global clone 2); ApeC, chain length factor of the APE biosynthesis gene cluster, Acinetobacter baumannii (pathogenic strain, global clone 2); The His6 tag on AbApeO is said to be not cleavable; The complex was formed by co-expression and used as one molecule in ITC; also called ApeO-ApeC; …
# [2] = target: T2, AbApeR (FabB-like homodimeric ketosynthase of the A. baumannii APE gene cluster) (Acinetobacter baumannii); assay: as above; conditions: both partners purified
# T2 construct: ApeR, ketoacyl-ACP synthase I (FabB)-like ketosynthase of the APE biosynthesis gene cluster, Acinetobacter baumannii (pathogenic strain, global clone 2); not shown: His6, N-terminal, cleaved
binder,measurement,setting,value
B1,stoichiometry N,[1],1.21
same,Kd,[2],41 µM
same,stoichiometry N,[2],0.71
